Results reported in article PMC3034952 (Enzyme Research, 2011).
Positions count from the first letter of the chain named.

Columns and labels:
Test in all cases: SEC; purified recombinant AtPDC E1 on a Superose 12 column in 50 mM TES-NaOH, pH 7.4, 50 mM NaCl, 0.1 mM TPP, 0.2 mM MgCl2; fractions analysed by SDS-PAGE and immunoblotting
Conditions in all cases: both partners purified
[1] = biological target: T1, AtPDC E1α G297D mutant, H6-tagged (Arabidopsis thaliana, UniProt P52901 18-389, G297D)
T1 sequence (looked up): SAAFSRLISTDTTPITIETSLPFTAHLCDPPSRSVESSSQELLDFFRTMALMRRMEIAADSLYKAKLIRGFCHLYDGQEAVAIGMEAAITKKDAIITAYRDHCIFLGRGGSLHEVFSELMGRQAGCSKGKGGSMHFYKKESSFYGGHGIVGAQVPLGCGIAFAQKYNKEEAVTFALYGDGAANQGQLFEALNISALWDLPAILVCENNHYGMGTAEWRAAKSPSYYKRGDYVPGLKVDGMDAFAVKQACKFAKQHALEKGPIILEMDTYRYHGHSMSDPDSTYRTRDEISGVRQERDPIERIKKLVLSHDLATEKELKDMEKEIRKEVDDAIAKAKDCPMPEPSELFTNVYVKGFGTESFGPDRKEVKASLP

[2] = biological target: T2, AtPDC E1α D295L mutant, H6-tagged (Arabidopsis thaliana, UniProt P52901 18-389, D295L)
T2 sequence (looked up): T1 sequence (looked up) with D278L, D280G

[3] = biological target: T3, AtPDC E1α S292D/S298A double mutant, H6-tagged (Arabidopsis thaliana, UniProt P52901 18-389, S292D | S298A)
T3 sequence (looked up): T1 sequence (looked up) with S275D, D280G, S281A

[4] = biological target: T4, AtPDC E1α S298A mutant, H6-tagged (Arabidopsis thaliana, UniProt P52901 18-389, S298A)
T4 sequence (looked up): T1 sequence (looked up) with D280G, S281A

[5] = biological target: T5, AtPDC E1α S292A mutant, H6-tagged (Arabidopsis thaliana, UniProt P52901 18-389, S292A)
T5 sequence (looked up): T1 sequence (looked up) with S275A, D280G

binding result [1]: binds | binding result [2]: binds | binding result [3]: binds | binding result [4]: binds | binding result [5]: binds
B1: Arabidopsis thaliana mitochondrial pyruvate dehydrogenase E1β subunit (AtPDC E1β), FLAG-tagged (enzyme, UniProt Q38799 30-363, looked up)
chain: AAGAKEMTVRDALNSAIDEEMSADPKVFVMGEEVGQYQGAYKITKGLLEKYGPERVYDTPITEAGFTGIGVGAAYAGLKPVVEFMTFNFSMQAIDHIINSAAKSNYMSAGQINVPIVFRGPNGAAAGVGAQHSQCYAAWYASVPGLKVLAPYSAEDARGLLKAAIRDPDPVVFLENELLYGESFPISEEALDSSFCLPIGKAKIEREGKDVTIVTFSKMVGFALKAAEKLAEEGISAEVINLRSIRPLDRATINASVRKTSRLVTVEEGFPQHGVCAEICASVVEESFSYLDAPVERIAGADVPMPYAANLERLALPQIEDIVRASKRACYRSK
